Literature values as cited in US20190382462A1, “METHODS AND COMPOSITIONS FOR TREATING HPA HYPERACTIVITY” (priority 2017, published 2019).
Where two headings read alike, the source gives them in different places. Where no end group is shown, it is not given here.

Tests used:
[1] = human serum
CRF-BP = molecular target: T1, CRF-BP (Homo sapiens, UniProt P24387)
T1 sequence (P24387 25-322): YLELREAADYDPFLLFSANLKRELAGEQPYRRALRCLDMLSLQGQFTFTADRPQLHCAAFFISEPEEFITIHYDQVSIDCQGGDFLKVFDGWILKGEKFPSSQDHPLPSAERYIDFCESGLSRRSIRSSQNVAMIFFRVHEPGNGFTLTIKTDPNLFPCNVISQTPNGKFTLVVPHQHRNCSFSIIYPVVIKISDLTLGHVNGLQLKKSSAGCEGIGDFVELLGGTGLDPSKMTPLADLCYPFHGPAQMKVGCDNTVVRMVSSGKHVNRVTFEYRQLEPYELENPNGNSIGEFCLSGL

CRF1 = molecular target: T2, CRF1 (Homo sapiens, UniProt P34998)
T2 sequence (P34998 24-415): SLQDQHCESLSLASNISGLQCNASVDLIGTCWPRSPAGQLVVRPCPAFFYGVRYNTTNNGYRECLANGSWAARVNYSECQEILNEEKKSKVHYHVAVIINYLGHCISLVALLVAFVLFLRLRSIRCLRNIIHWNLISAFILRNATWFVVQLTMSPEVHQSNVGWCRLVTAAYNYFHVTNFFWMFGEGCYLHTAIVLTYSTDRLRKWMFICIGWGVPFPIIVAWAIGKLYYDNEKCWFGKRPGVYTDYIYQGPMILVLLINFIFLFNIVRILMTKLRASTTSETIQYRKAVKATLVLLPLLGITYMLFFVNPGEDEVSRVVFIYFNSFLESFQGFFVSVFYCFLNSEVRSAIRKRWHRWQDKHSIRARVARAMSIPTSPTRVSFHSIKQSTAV

Substance: Factor IX: other formulations of Factor IX alone
- half-life (b170, Alprolix: terminal half-life in clinical trials): ~18 h

Substance: Human transferrin: highly abundant serum glycoprotein that carries iron
- half-life [1]: 170 to 288 h

Substance: Ucn2: CRF-related peptide, selective CRF2 agonist (IVLSLDVPIGLLQILLEQARARAAREQATTNARILARVGHC; ends and bridges not checked; UniProt Q96RP3 72-112, looked up)
- affinity for CRF-BP (CRF-BP): neither Ucn2 nor Ucn3 exhibits appreciable affinity

Substance: Ucn3: CRF-related peptide, selective CRF2 agonist (FTLSLDVPTNIMNLLFNIAKAKNLRAQAAANAHLMAQI; ends and bridges not checked; UniProt Q969E3 120-157, looked up)
- affinity for CRF-BP (CRF-BP): neither Ucn2 nor Ucn3 exhibits appreciable affinity

Substance: aglycosylated form of human transferrin: aglycosylated form, about 2-8% of the total transferrin pool
- half-life [1]: 336 to 408 h

Substance: bevacizumab: therapeutic antibody
- circulating serum concentration reported for therapeutic antibody (in vivo): 10 to 30 µg/mL

Substance: darbepoetin alfa
- serum half-life compared to epoetin alpha and epoetin beta (in vivo): 3 fold

Substance: etanercept
- half-life (b287, b290): roughly 70 hours

Substance: urocortin 1 (DNPSLSIDLTFHLLRTLLELARTQSQRERAEQNRIIFDSV; ends and bridges not checked; UniProt P55089 83-122, looked up) [Ucn1]
- binding affinity for CRF1 relative to CRF (CRF1): threefold higher
